From patent publication US20220332804A1 (CSL INNOVATION, published 2022)

Experiments:
Test in all cases: SPR, antibody captured, C2 as analyte;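 further: biacore at 37 °C, anti-C2 mAbs held by immobilised goat anti-human IgG, C2 alanine or serine mutants injected, double-referenced sensorgrams fitted to a 1:1 kinetic or steady-state model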
[1] = molecular target: T1, human C2 Y328A (human, UniProt P06681 21-752)
T1 sequence: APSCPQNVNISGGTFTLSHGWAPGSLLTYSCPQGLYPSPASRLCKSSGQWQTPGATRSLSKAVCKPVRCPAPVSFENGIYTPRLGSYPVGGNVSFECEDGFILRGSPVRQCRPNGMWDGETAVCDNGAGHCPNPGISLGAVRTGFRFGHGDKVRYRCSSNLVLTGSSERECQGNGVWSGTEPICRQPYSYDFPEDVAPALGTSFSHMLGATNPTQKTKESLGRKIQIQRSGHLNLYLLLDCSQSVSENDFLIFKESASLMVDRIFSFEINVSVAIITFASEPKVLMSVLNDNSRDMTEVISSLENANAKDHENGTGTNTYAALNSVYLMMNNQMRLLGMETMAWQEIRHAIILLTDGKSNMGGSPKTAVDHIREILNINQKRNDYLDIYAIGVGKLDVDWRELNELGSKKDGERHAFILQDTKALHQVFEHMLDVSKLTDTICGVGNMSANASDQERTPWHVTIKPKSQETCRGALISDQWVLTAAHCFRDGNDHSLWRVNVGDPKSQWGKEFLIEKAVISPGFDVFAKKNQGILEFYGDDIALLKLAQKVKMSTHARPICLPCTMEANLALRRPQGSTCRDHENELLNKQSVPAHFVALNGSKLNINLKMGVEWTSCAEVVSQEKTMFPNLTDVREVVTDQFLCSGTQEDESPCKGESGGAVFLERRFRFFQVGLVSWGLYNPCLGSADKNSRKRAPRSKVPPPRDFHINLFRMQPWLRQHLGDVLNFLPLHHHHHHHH

[2] = molecular target: T2, human C2 V465A (human, UniProt P06681 21-752)
T2 sequence: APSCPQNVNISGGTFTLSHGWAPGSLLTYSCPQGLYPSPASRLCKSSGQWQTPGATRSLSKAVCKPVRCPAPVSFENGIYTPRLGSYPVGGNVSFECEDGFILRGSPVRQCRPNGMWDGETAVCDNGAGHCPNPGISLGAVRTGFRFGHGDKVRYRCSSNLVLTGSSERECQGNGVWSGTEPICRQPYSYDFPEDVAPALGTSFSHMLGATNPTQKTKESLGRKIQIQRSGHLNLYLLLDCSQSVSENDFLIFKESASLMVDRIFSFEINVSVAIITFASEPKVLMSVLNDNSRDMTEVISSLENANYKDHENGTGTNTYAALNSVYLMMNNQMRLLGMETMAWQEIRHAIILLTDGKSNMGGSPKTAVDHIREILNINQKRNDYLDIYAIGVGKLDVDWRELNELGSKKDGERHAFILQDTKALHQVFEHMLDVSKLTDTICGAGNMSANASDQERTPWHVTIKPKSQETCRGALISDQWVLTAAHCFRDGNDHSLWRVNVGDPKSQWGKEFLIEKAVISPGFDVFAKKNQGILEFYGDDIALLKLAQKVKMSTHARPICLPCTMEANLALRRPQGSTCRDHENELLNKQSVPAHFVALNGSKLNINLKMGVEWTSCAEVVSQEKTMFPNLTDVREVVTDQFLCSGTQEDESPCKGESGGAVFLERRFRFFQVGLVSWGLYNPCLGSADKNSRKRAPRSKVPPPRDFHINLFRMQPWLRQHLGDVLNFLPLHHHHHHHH

[3] = molecular target: T3, human C2 L453A (human, UniProt P06681 21-752)
T3 sequence: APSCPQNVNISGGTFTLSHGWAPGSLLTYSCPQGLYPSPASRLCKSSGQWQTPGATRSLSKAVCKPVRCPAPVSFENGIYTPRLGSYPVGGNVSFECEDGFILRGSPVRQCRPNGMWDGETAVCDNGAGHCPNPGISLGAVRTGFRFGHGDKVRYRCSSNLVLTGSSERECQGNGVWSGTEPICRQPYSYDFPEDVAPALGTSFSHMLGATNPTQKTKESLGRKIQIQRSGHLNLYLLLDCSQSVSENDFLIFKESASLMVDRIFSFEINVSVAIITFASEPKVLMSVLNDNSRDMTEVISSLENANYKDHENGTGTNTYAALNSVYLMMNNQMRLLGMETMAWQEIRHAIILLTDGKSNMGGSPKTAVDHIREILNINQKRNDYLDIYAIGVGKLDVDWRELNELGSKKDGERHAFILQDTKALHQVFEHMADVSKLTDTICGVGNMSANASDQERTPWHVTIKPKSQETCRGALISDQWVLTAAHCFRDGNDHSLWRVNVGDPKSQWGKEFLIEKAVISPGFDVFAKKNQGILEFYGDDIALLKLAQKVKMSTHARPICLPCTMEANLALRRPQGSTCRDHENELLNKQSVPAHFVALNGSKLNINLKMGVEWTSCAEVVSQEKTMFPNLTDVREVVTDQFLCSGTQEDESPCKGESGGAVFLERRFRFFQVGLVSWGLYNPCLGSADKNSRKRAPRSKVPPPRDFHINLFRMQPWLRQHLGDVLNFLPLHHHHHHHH

[4] = molecular target: T4, human C2 G427A (human, UniProt P06681 21-752)
T4 sequence: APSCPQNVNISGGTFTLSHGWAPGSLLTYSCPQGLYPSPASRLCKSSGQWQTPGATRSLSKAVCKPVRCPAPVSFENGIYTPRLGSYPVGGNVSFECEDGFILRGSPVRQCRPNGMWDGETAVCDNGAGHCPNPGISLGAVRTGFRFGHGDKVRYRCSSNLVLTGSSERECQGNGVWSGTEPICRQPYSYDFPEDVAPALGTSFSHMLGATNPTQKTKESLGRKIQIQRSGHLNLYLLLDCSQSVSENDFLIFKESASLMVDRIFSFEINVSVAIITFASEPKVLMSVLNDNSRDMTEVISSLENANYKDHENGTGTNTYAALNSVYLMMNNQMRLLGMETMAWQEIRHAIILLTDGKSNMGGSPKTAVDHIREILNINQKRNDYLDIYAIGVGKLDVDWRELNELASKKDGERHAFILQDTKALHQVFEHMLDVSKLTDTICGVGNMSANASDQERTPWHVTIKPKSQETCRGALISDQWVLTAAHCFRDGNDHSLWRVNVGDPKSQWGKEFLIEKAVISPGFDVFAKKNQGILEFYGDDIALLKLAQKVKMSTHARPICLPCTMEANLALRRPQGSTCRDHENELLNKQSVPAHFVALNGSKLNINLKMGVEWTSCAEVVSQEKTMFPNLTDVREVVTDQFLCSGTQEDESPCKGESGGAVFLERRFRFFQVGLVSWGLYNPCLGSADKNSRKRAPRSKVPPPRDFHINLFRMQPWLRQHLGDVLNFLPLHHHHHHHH

B1: RF16-242 (antibody, human IgG4 S228P, lambda, V domains shown)
VH: EVQLLQSGAEVKKPGESLKISCKGSGYSFTSYWIGWVRQMPGKGLEWMGIIYPGDSDTRYSPSFQGQVTISADKSISTAYLQWSSLKASDTAMYYCARRGHYGDYFDYWGQGTLVTVSS
VL: SYELTQPPSVSVSPGQTARITCSGDALPKKYAYWYHQKSGQAPVLVIYEDRRRPSEIPERFSGSSSGTMATLTITGAQVEDEGVYFCYSRDRAGNQRVFGGGTQLTVLG
notes: pH-dependent anti-C2 antibody from a phage display library
B1 gave a Kd [1] of 45.4 nM, a Kd [2] of 16.3 nM and a Kd [3] of 6.8 nM. It also gave a Kd [4] of 4 nM.
